# According to publication PMC3408433, “Selective Cytotoxicity of Amidinopiperidine Based Compounds Towards Burkitt’s Lymphoma Cells Involves Proteasome Inhibition” (PLoS ONE, 2012):
# Tested on: Cc1cc(=O)oc2cc(NC(=O)[C@H](Cc3ccccc3)NC(=O)[C@@H]3CCCN3C(=O)[C@H](C)NC(=O)[C@H](C)NC(=O)CCC(=O)O)ccc12
# Test: purified protein, by the assay type
# Conditions: other: mean of six independent experiments, pH 7.8, 30°C
# Method: In short, a 1 nM solution of α-chymotrypsin was mixed with various concentrations of the substrate Suc-Ala-Ala-Pro-Phe-AMC. All the solutions were prepared in 144 mM Tris–HCl, pH 7.8. Substrate hydrolysis was monitored at 30°C on an automated Tecan Safire^2 microplate reader (Tecan, Mannedorf/Zürich, Switzerland). The initial rates of the reactions (ΔF/Δt) were measured immediately after the addition of the substrate (within 200 s) and plotted versus substrate concentration with nonlinear regression to fit a Michaelis-Menten plot. The curve fit and kinetic parameters (Km and v max) were calculated using GraphPad PRISM version 5.0 software (GraphPad Software, Inc., CA, USA). […] The initial velocities of the hydrolysis reactions were measured under the same conditions as described for the determination of Km. 50 µl of α-chymotrypsin solution was added to 50 µl of each inhibitor solution (prepared in 144 mM Tris–HCl, pH 7.8; final concentration 1 nM) and incubated at 30°C for 15 min. The reaction was initiated with the addition of 100 µl of substrate. […] The Ki values were determined as mean values of all measurements.
substance,measurement,value
α-chymotrypsin (Bos taurus),Km,66 ± 9 µM
